According to patent publication WO2007014744A2 (dated 2007):

What was measured:
[1] = target: T1, fibroblast activation protein (FAP) (UniProt Q12884 1-760, limits assumed); assay: flow cytometry on HT1080FAP against HT1080 cells, 5 ug/ml fusion protein, anti-Flag M2 detection
T1 construct: whole, on cells; also called FAP antigen; FAP on HT1080FAP cells
T1 sequence (looked up): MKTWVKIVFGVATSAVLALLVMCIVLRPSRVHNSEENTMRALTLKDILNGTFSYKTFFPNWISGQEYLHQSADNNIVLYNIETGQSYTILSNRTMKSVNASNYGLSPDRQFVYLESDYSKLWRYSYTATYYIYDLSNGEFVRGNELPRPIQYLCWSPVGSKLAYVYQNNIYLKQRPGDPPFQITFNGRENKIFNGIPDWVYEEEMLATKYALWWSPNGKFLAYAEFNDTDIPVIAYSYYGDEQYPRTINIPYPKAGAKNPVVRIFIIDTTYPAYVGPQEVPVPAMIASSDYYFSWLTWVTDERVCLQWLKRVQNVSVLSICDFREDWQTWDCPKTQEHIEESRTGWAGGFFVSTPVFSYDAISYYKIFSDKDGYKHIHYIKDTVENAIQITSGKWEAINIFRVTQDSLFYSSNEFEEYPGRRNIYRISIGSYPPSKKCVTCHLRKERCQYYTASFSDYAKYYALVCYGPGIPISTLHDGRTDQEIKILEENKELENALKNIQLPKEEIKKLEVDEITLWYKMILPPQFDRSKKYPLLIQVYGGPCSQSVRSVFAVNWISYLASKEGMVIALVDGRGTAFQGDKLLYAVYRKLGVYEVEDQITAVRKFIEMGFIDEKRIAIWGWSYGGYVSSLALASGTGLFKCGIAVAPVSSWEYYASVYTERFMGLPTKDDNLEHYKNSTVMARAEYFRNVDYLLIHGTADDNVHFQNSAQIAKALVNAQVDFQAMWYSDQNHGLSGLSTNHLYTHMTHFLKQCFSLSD

[2] = target: the molecule itself; assay: BS3 chemical crosslinking, gel filtration and native PAGE; multimers up to hexamers, native mass about 500 kDa

binding result [1]: binds
B1: CD95-TNC-PL-SC40-CD95L prodrug (other)
chain: LEVARLSSKSVNAQVTDINSKGLELRKTVTTVETQNLEGLHHDGQFCHKPCPPGERKARDCTVNGDEPDCVPCQEGKEYTDKAHFSSKCRRCRLCDEGHGLEVEINCTRTQNTKCRCKPNFFCNSTVCEHCDPCTKCEHGIIKECTLTSNTKCKEEGSRSNPRDIACGCAAAPDIKDLLSRLEELEGLVSSLREQGTGGGSGRPPRDHPVGLLARGGGHPVGLLARGGGHPVGLLARTGLEQVQLVQSGGGMVEPGGSLRLSCAASGFTFSNAWMSWVRQAPGKGLEWVGRIKSKAGGGTAEYAAPVKGRFTISRDDSQNTLYLQMNSLKTDDTAVYYCTTHVYGAPRNWGQGSLVTVSSASTKGPKLEEGEFSEARVQSVLTQPPSVSAAPGQKVTISCSGSSSNIGNNYVSWYVQLPGTAPKLLIYDNNKRFSGVPDRFSGSKSGTSATLGITGLQTGDEADYYCGAWDGSLREAVFGGGTKVTVLGAAAVDDYKDDDDKEFTREKKELRKVAHLTGKSNSRSMPLEWEDTYGIVLLSGVKYKKGGLVINETGLYFVYSKVYFRGQSCNNLPLSHKVYMRNSKYPQDLVMMEGKMMSYCTTGQMWARSSYLGAVFNLTSADHLYVNVSELSLVNFEESQTFFGLYKL
notes: Made in HEK293 cells and purified on anti-Flag M2 agarose; Forms covalently associated trimers through the tenascin domain; Crosslinking, gel filtration and native PAGE (about 500 kDa) point to hexamers, i.e. dimers of trimers; also called SC40-CD95L-PD; CD95-TNC-PL-SC40-F-CD95L
binding result [2]: binds
